Test results: doi:10.1101/2022.04.29.490116
Read-outs that look alike come from different tables or passages of the source.

How the values were obtained:
[1] = molecular target: StbA of plasmid R388, full length, C-terminally (His)6-tagged (enterobacterial plasmid R388); assay: SEC
StbA1-75 [2] = molecular target: T1, StbA1-75 (Escherichia coli plasmid R388, UniProt Q6I6C4 1-75); assay: EMSA
T1 sequence: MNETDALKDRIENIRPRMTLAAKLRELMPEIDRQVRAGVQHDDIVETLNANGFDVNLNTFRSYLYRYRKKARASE

StbA [3] = molecular target: T2, StbA (Escherichia coli plasmid R388, UniProt Q6I6C4 1-141); assay: EMSA
T2 sequence: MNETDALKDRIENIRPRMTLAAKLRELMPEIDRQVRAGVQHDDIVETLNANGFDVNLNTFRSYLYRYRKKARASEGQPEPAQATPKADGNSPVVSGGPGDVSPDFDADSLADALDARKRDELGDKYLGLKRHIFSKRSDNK

StbA [4] = molecular target: T2, StbA; assay: EMSA; remark: listed apart in the source
StbA1-75 [5] = molecular target: T1, StbA1-75; assay: EMSA; remark: listed apart in the source
StbA [6] = molecular target: T2, StbA; assay: EMSA; remark: listed apart in the source
StbA [7] = molecular target: T2, StbA; assay: EMSA; remark: listed apart in the source
StbA1-75 [8] = molecular target: T1, StbA1-75; assay: EMSA; remark: listed apart in the source
StbA [9] = molecular target: T2, StbA; assay: EMSA; remark: listed apart in the source
StbA [10] = molecular target: T2, StbA; assay: EMSA; remark: listed apart in the source

Molecule “StbA of plasmid R388, full length, C-terminally (His)6-tagged (natural protein)” has a stoichiometry N [1] of 2.

B1: stb5a (dsDNA)
DNA 1: CCGTTTTAGCTCATTTTCTGCATCATTGTAGCACCATCATAGCATTATAGTTGCATCATTGCTGCACGATAACCCAATGC
DNA 2: GCATTGGGTTATCGTGCAGCAATGATGCAACTATAATGCTATGATGGTGCTACAATGATGCAGAAAATGAGCTAAAACGG
B1: binds (StbA1-75 [2]); binds (StbA [3]).

B2: stb3 (dsDNA)
DNA 1: TAGCTCATTCTGTTCTTGCTTGCTGCATCATCACTGCATCATAGCTGCATCATCAATGCCGATCTAGCTCATTACTGTTC
DNA 2: GAACAGTAATGAGCTAGATCGGCATTGATGATGCAGCTATGATGCAGTGATGATGCAGCAAGCAAGAACAGAATGAGCTA
B2: binds (StbA [4]); binds (StbA1-75 [5]).

B3: stb5 (dsDNA)
DNA 1: TCTGTTCTTGCTTGCTGCATCATCACTGCATCATCACTGCATCATCACTGCATCATCACTGCATCATATGCCGATCTAGC
DNA 2: GCTAGATCGGCATATGATGCAGTGATGATGCAGTGATGATGCAGTGATGATGCAGTGATGATGCAGCAAGCAAGAACAGA
B3: binds (StbA [6]).

B4: stb2 (dsDNA)
DNA 1: CCGTTCTAGCTCATTCTGTTCTTGCTTGCTGCATCATCACTGCATCATCCCAATGCCGATCTAGCTCATTACTGTTCTAT
DNA 2: ATAGAACAGTAATGAGCTAGATCGGCATTGGGATGATGCAGTGATGATGCAGCAAGCAAGAACAGAATGAGCTAGAACGG
B4: binds (StbA [7]); binds (StbA1-75 [8]).

B5: stb0 (dsDNA)
DNA 1: CCTTAAACGGCCTATTGTTTCCAAGCGGAGTGACAACAAATGAAAGTAGCTGTGCTTAAGTATTCAACAAAGCCGCCGTC
DNA 2: GACGGCGGCTTTGTTGAATACTTAAGCACAGCTACTTTCATTTGTTGTCACTCCGCTTGGAAACAATAGGCCGTTTAAGG
B5: no binding (StbA [9]).

B6: stb5b (dsDNA)
DNA 1: TTGCCTGCATCATAGCTGTCCTATGACTGCATCACATTTGCATCATACATGCATTATTTC
DNA 2: GAAATAATGCATGTATGATGCAAATGTGATGCAGTCATAGGACAGCTATGATGCAGGCAA
B6: binds (StbA [10]).
